Measured values: patent US6383761B1, “Methods and compositions for identifying modulators of G-protein-coupled receptors” (The Regents of the University of California, priority 1997, dated 2002)

How the values were obtained:
m2 muscarinic receptor = target: T1, m2 muscarinic receptor (Homo sapiens, UniProt P08172); experiment: PI hydrolysis assay (IP1 accumulation) in COS-7 cells co-transfected with receptor and Gαq construct; format: cell-based; settings: carbachol 100 μM, pertussis toxin pretreatment 500 ng/ml
T1 sequence (P08172 1-466): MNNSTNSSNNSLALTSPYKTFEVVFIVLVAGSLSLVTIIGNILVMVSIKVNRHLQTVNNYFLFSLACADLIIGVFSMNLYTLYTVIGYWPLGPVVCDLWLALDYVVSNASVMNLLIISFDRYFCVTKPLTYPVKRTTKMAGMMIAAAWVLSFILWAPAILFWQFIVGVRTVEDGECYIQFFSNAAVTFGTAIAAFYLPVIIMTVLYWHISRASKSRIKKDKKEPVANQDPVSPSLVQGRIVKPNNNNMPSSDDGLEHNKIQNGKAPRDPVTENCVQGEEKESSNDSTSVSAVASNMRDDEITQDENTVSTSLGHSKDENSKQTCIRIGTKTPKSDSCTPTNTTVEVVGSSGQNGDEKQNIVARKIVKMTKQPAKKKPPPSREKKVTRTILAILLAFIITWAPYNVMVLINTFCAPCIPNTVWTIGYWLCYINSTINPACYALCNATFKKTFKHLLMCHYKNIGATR

D2 dopamine receptor = target: T2, D2 dopamine receptor (Homo sapiens, UniProt P14416); format: cell-based
T2 construct: expressed in transfected cells; host or cells: COS-7
T2 sequence (P14416 whole entry): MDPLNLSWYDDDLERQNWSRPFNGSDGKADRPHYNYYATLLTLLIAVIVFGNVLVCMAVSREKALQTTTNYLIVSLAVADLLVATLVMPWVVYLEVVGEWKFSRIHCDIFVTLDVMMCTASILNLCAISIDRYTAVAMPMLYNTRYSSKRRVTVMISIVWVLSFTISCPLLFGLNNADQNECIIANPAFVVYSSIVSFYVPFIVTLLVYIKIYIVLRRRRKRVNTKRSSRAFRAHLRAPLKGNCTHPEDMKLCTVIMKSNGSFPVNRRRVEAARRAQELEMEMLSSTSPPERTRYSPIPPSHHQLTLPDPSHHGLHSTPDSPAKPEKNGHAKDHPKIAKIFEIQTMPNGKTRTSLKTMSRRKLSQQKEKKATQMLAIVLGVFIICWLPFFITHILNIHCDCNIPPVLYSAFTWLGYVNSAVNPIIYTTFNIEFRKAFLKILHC

## pertussis toxin
m2 muscarinic receptor; m2 receptor co-expressed with −6q
  block of agonist-induced PI response: partly blocked
m2 muscarinic receptor; m2 receptor with vector DNA or WTq
  block of agonist-induced increase in inositol phosphate production: almost completely blocked
D2 dopamine receptor
  block of agonist-induced PI response: partly blocked
  block of agonist-induced increase in inositol phosphate production: almost completely blocked
